The numbers were not newly measured in publication PMC4480918, which cites them from elsewhere.

Common to all, as to experiment: NMR
In one series the test system is His92. Particulars: redox state not stated.
For the next series, the system named is His61. Particulars: redox state not stated.
Another series deals with His80 (UniProt position 121, KELYGHTLVWH). The settings on record: free enzyme (not the 2FCb glycosyl-enzyme intermediate).

Regarding “Plastocyanin (A.v. Pc) (Anabaena variabilis)”, the results for the pKa in the series on His92 and in the series with His61 were 5.1 and 7.1, respectively.
With “Catalytic domain of beta-(1,4)-glycosidase Cex (CexCD) (Cellulomonas fimi)”, the pKa in the series with His80 is 7.9.

The term pKa denotes the negative logarithm of the acid dissociation constant.
